{
  "source": "patent US20210361653",
  "biological_target": "His-BRD4-N (amino acids 1-500), O60885",
  "data": [
    {"protein": "GST-SPOP (protein) MSRVPSPPPPAEMSSGPVAESWCYTQIKVVKFSYMWTINNFSFCREEMGEVIKSSTFSSGANDKLKWCLRVNPKGLDEESKDYLSLYLLLVSCPKSEVRAKFKFSILNAKGEETKAMESQRAYRFVQGKDWGFKKFIRRDFLLDEANGLLPDDKLTLFCEVSVVQDSVNISGQNTMNMVKVPECRLADELGGLWENSRFTDCCLCVAGQEFQAHKAILAARSPVFSAMFEHEMEESKKNRVEINDVEPEVFKEMMCFIYTGKAPNLDKMADDLLAAADKYALERLKVMCEDALCSNLSVENAAEILILADLHSADQLKTQAVDFINYHASDVLETSGWKSMVVSHPHLVAEAYRSLASAQCPFLGPPRKRLKQS", "values": [
      {"measurement": "in vitro ubiquitination assay", "result": "The SPOP-CULLIN3-RBX1 complex was shown to catalyzed BRD4 ubiquitination in vitro"}
    ]}
  ]
}
